Test [1] addresses T1, DLK1-hFc fusion protein (extracellular region of human DLK1 fused with human Fc) (human, UniProt P80370 24-303).
T1 construct: The ELISA text says 'DLK1 protein'/'antigen DLK1' coated at 100 ng/well; also called hDLK1; DLK1 antigen
T1 sequence: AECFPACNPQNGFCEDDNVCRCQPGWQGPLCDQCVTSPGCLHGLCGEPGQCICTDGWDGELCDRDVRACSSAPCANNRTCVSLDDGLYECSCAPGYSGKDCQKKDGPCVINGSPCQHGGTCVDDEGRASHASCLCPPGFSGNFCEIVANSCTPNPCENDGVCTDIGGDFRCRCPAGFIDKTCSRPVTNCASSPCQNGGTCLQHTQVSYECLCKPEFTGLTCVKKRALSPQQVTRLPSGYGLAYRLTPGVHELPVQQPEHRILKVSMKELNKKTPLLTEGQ
Nature of the test: ELISA, coated DLK1 antigen, IgG titrated 100 nM to 0.046 nM, GraphPad Prism fit. In general terms: An ELISA detects its analyte on a solid surface through an enzyme-linked reagent.

Test [2] deals with T2, human DLK1 present on the cell surface (DLK1-overexpressing MIA PaCa-2 cells); SK-N-F1 cells endogenously … (human, UniProt P80370 24-383).
T2 sequence (looked up): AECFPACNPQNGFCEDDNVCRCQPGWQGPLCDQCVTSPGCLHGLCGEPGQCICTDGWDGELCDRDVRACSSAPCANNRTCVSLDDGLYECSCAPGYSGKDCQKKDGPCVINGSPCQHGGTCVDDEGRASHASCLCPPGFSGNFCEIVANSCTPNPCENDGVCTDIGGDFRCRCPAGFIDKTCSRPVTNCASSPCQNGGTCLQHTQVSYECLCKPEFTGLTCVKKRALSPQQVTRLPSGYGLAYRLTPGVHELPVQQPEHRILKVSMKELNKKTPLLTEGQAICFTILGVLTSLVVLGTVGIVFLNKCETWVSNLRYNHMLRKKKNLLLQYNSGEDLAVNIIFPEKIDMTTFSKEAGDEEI
The experiment in a line: cell-based or functional assay.

In test [3] the target is T2, human DLK1 present on the cell surface …. The experiment in a line: FACS, DLK1-overexpressing MIA PaCa-2 cells, antibody titrated 1/3 from 10 µg/ml. Background: Flow cytometry measures light scatter and fluorescence of single cells or particles in a stream.

B1: human anti-DLK1 monoclonal antibody 27F7 (antibody, V domains shown)
VH: QMQLVESGGGLVKPGGSLTLSCDATGFNFGSYYMNWVRQAPGKGLEWLAHISSTGRTIYYADSVKGRFTISRDNAKSSLDLQMNSLRAEDTAVYYCARDQGYPFGMDVWGHGTTVTVSS
VL: QLVLTQPSSVSGAPGQRVTISCTGSSSNIGAGYDVDWYQQLPGTAPKLLIYGNTNRPSGVPDRFSGSKSGTSASLAITGLQAEDDSDYYCQSYDSSLSAWVFGGGTKLTVL
notes: Converted from scFv to IgG
In test [1], B1 came in with a dissociation constant Kd of 220 pM.

B2: human anti-DLK1 monoclonal antibody 35E2 (antibody, V domains shown)
VH: QVQLVESGGGVVQPGRSLRLSCAASGFTFSSYAMHWVRQAPGKGLEWVAVIYSGGSTYYADSVKGRFTISRDNSKNTLYLQMNSLRAEDTAVYYCAREGSYDVMTYTRIGGYFDYWGQGALVTVSS
VL: DIQMTQSPSSVSASVGDRVTITCRASQGISDWVAWYQQKPGKAPKLLIYAASSLQSGVPSRFSGSGSGTEFSLTISNLQPEDFATYYCQQANSFPLTFGPGTKVEIK
notes: Converted from scFv to IgG
As to B2, the Kd in test [1] is 330 pM.

B3: human anti-DLK1 monoclonal antibody 18A5 (antibody, V domains shown)
VH: QVQLVQSGGAVVQPGHSLRLSCEASGFKFKDYGMHWVRQAPGKGLEWLAVISHDGRNKNYADSVKGRLTISRDNSKNTLSFQMNSLRAEDTAVYYCVRDWSYAFDIWGQGTLVTVSS
VL: DIQMTQSPSFLSASVGDRVNITCRASQDISRRLAWYQQKPGKAPKLLIYGAASLQSAVASRFSGSGSGTEFTLTISSLQPEDFANYYCQQIYTTPLTFGGGTKVEIK
notes: Converted from scFv to IgG; also called DLK1-18A5
As to B3, the “EC50 of cytotoxicity of 18A5-Fab ZAP in DLK1-overexpressing MIA PaCa-2 cells” value in test [2] is 0.002 pM. Binding in test [1] was put at a Kd of 520 pM. In test [3], this molecule came in with a concentration giving a half-maximal response (EC50) of 0.131 mg/L.

B4: human anti-DLK1 monoclonal antibody variant 18A5_AM_1A12 (antibody, V domains shown)
VH: QVQLVQSGGGVVQPGGSLRLSCAASGFKFKDYGMHWVRQAPGKGLEWLAVISHDGRNKNYADSVKGRLTISRDNSKNTLSFQMNSLRAEDTAVYYCVRDWSYAFDIWGQGTLVTVSS
VL: DIQMTQSPSFLSASVGDRVTITCRASHDISSSLAWYQQKSGKAPKLLIYSASNLKSGVPSRFSGSGSGTDFSLTISSLQPEDFATYYCQQSYTTVLTFGGGTKLEIK
As for B4, in test [2], the “EC50 of cytotoxicity of 18A5_AM_1A12-Fab ZAP in DLK1-overexpressing MIA PaCa-2 cells” value turned out to be 0.0026 pM. Binding in test [1] was characterised by a dissociation constant (Kd) of 13 pM. In addition, the midpoint of the response in test [3], the EC50, lay at 0.0903 mg/L.

B5: human anti-DLK1 monoclonal antibody variant 18A5_LS_1A10 (antibody, V domains shown)
VH: QVQLVQSGGAVVQPGHSLRLSCEASGFKFKDYGMHWVRQAPGKGLEWLAVISHDGRNKNYADSVKGRLTISRDNSKNTLSFQMNSLRAEDTAVYYCVRDWSYAFDIWGQGTLVTVSS
VL: DIQMTQSPSSLSASLGDRVTITCRASQGISSALAWYQQKPGKAPKLLIYAASSLQSGVPSRFSGSGSGTDFTLTINSLQPEDFATYYCQQSYTTPLTFGGGTKVEIK
As for B5, the “EC50 of cytotoxicity of 18A5_LS_1A10-Fab ZAP in DLK1-overexpressing MIA PaCa-2 cells” value in test [2] came to 0.0011 pM. The affinity in test [1], expressed as Kd, was 47 pM. This molecule also registered an EC50 in test [3] of 0.12 mg/L.

B6: human anti-DLK1 monoclonal antibody 20D3 (antibody, V domains shown)
VH: QMQLVQSGGGLVQPGRSLRLSCAASGFTFDDYAMHWVRQAPGKGLEWVSGISWNSGSIGYADSVKGRFTISRDNAKNSLYLQMNSLRAEDTAVYYCTKGPGLATGKVYFNSWGQGTQVTVSS
VL: DIQMTQSPSSVSASVGDRVTITCRASQRISSWLAWYQQKPGRAPKLLIHSASTLHNGVPSRFSGSASGTDFTLTISSLQPEDFAIYYCQQGHSFPYTFGQGTKLDIK
notes: Converted from scFv to IgG
Molecule B6 showed a Kd in test [1] of 54000 pM.

B7: human anti-DLK1 monoclonal antibody 17B11 (antibody, V domains shown)
VH: QVQLVESGGTLVQPGGSLRLSCAASGFTFSSHAMSWVRQTPGKGLEWVSSITKSGSGTYSADSVKGRFTISRDNSKNTLYLQMNSLRAEDTAVYYCTREGLGYYYGMDVWGQGTTVTVSS
VL: QLVLTQPPSVSGAPGQRVIISCTGSSSNIGAGYDVHWYQQLPGTAPRLLIYGSTNRPSGVPDRFSGSKSGTSASLAITGLQAEDEADYYCQSYDNSLSAHYVFGTGTKVTVL
notes: Converted from scFv to IgG (pNATVH/pNATVL, HEK293E)
B7 gave a Kd in test [1] of 7190 pM.

A word on the Kd: it is the free concentration of one partner at which half of the binding sites on the other are occupied at equilibrium, for simple one-to-one binding. Read a low Kd as tighter binding. As a reminder, the EC50 is the concentration at which the effect is half-maximal.

These data come from patent US20210214432A1 (Y BIOLOGICS, published 2021).
